Laboratory results: paper PMC3226628, “The Golgi Localization of GOLPH2 (GP73/GOLM1) Is Determined by the Transmembrane and Cytoplamic Sequences” (PLoS ONE, 2011)
Residue numbers refer to the chain shown, from its start. In names and notes the source's numbering stands.

How the values were obtained:
[1] = molecular target: the molecule itself; experiment: SDS-PAGE under non-reducing and reducing conditions; purified GOLPH2-Δ(1–55) and cysteine mutants boiled with 0 to 100 mM 2-mercaptoethanol, 10% SDS-PAGE; shows disulfide-linked oligomers
[2] = molecular target: the molecule itself; experiment: native gel or EMSA; native-PAGE of purified GOLPH2-Δ(1–55) and cysteine mutants, loaded directly or boiled with 2% SDS and 140 mM 2-mercaptoethanol; BSA monomer, dimer and tetramer as markers
[3] = molecular target: the molecule itself; experiment: SDS-PAGE under non-reducing conditions with immunoblot; lysates of HeLa cells 36 h after transfection with pCR3.1-GOLPH2-FLAG or mutants; immunoblot with FLAG antibody

B1: GOLPH2-Δ(1–55) (domain or fragment, human, UniProt Q8NBJ4 56-401, looked up)
chain: AAAERGAVELKKNEFQGELEKQREQLDKIQSSHNFQLESVNKLYQDEKAVLVNNITTGERLIRVLQDQLKTLQRNYGRLQQDVLQFQKNQTNLERKFSYDLSQCINQMKEVKEQCEERIEEVTKKGNEAVASRDLSENNDQRQQLQALSEPQPRLQAAGLPHTEVPQGKGNVLGNSKSQTPAPSSEVVLDSKRQVEKEETNEIQVVNEEPQRDRLPQEPGREQVVEDRPVGGRGFGGAGELGQTPQVQAALSVSQENPEMEGPERDQLVIPDGQEEEQEAAGEGRNQQKLRGEDDYNMDENEAESETDKQAALAGNDRNIDVFNVEDQKRDTINLLDQREKRNHTL
notes: Golgi phosphoprotein 2 (GOLPH2, GP73, GOLM1), human, residues 1-55 deleted; C-terminal luminal region, amino acids 56-401; also called purified wild-type GOLPH2; GOLPH2-Δ(1–55) fusion protein; source: E. coli BL21 (DE3), pET22b(+), purified (Ni-NTA)
Question: Does B1 bind [1]?
Answer: Result: binds

B2: GOLPH2-Δ(1–55) C159A-C170A (domain or fragment, human, UniProt Q8NBJ4 56-401, looked up)
chain: B1 chain with C104A, C115A
notes: GOLPH2 (GP73, GOLM1), human, residues 1-55 deleted (amino acids 56-401), C159A and C170A; Monomer on non-reducing SDS-PAGE, same migration as the wild type on native-PAGE; also called double mutant C159A–C170A; source: E. coli BL21 (DE3), pET22b(+), purified (Ni-NTA)
Question: Does B2 bind [2]?
Answer: Result: binds

B3: GOLPH2-Δ(1–55) C170A (domain or fragment, human, UniProt Q8NBJ4 56-401, looked up)
chain: B1 chain with C115A
notes: GOLPH2 (GP73, GOLM1), human, residues 1-55 deleted (amino acids 56-401), C170A; also called single mutant C170A; source: E. coli BL21 (DE3), pET22b(+), purified (Ni-NTA)
Question: Does B3 bind [1]?
Answer: Result: binds

B4: GOLPH2-Δ(1–55) C159A (domain or fragment, human, UniProt Q8NBJ4 56-401, looked up)
chain: B1 chain with C104A
notes: GOLPH2 (GP73, GOLM1), human, residues 1-55 deleted (amino acids 56-401), C159A; also called single mutant C159A; source: E. coli BL21 (DE3), pET22b(+), purified (Ni-NTA)
Question: Does B4 bind [2]?
Answer: Result: binds

B5: GOLPH2-FLAG (wild-type, full length) (natural protein, human, UniProt Q8NBJ4 1-401, looked up)
chain: MMGLGNGRRSMKSPPLVLAALVACIIVLGFNYWIASSRSVDLQTRIMELEGRVRRAAAERGAVELKKNEFQGELEKQREQLDKIQSSHNFQLESVNKLYQDEKAVLVNNITTGERLIRVLQDQLKTLQRNYGRLQQDVLQFQKNQTNLERKFSYDLSQCINQMKEVKEQCEERIEEVTKKGNEAVASRDLSENNDQRQQLQALSEPQPRLQAAGLPHTEVPQGKGNVLGNSKSQTPAPSSEVVLDSKRQVEKEETNEIQVVNEEPQRDRLPQEPGREQVVEDRPVGGRGFGGAGELGQTPQVQAALSVSQENPEMEGPERDQLVIPDGQEEEQEAAGEGRNQQKLRGEDDYNMDENEAESETDKQAALAGNDRNIDVFNVEDQKRDTINLLDQREKRNHTL
notes: Golgi phosphoprotein 2 (GOLPH2, GP73, GOLM1), human, full-length cDNA from Huh7 cells; also called pCR3.1-GOLPH2-FLAG; wild-type GOLPH2; source: HeLa, transfected, in lysate; not shown: FLAG, C-terminal, kept
Question: With B5 as the protein, how does the “stoichiometry N” value [3] read?
Answer: The value was 2.
